Reference: the supplement of paper PMC10567573

B1: S100A14 (parent)
chain: KIANLGSCNDSKLEFRSFWELIGE
B2: EMD (parent)
chain: YQSKGYNDDYYEESYFTTRTYGEP

Variants of: B1
Assay: protein stability index of a GFP-peptide fusion (GPS, HEK-293T) (PSI 1-6); higher = more stable
Conditions: c terminus: a fixed tail appended
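Further: lentivirally expressed fusions sorted by FACS into six bins by GFP to DsRed ratio, PSI derived from sequencing read proportions per bin multiplied by bin number.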

Protein stability index, by site and new letter:
L13: C 1.21; V 1.83
E24: D 2.15; G 1.36
F15: S 2.04
W19: M 1.79
A3: K 1.53
I2: W 1.88
I22: Y 2
L21: W 1.18
S11: Q 2.08
S17: R 1.34; D 1.95
R16: V 2.3; P 2.28
L5: A 1.89; E 2.74
N4: K 3.15

Variants of: B2
Assay: as above
Conditions: c terminus: a fixed tail appended

Protein stability index of substitutions, site by site:
T18: R 2.79; P 1.88; S 2.38; V 1.95; N 2.5; A 2.31; Q 2.3; W 2.02; I 1.77; C 2.08; M 2.04; F 1.39; K 2.65; G 2.09; L 2.11; E 2.44; D 2.46; H 2.17; Y 1.76
G22: Q 2.25; P 2.27; F 1.77; S 2.07; C 1.92; R 2.28; V 2.02; M 1.96; L 2.01; N 2.46; T 2.49; E 2.76; K 2.85; D 2.23; A 2.1; H 2.13; Y 1.49; W 1.93; I 2.13
P24: A 2.28; E 2.12; V 1.85; K 2.58; C 2.48; R 2.05; F 1.57; T 1.91; I 1.86; N 2.15; G 2.51; Y 1.83; L 2.1; W 1.74; H 1.97; Q 2.52; M 2.28; S 2.29; D 2.89
T20: P 2.17; A 2.15; E 2.52; Q 1.86; F 2.23; W 1.46; Y 1.44; S 2.33; L 2.4; N 2.53; I 1.73; V 2.1; C 2.26; K 2.05; R 2.1; D 2.52; H 2.1; G 2.6; M 2.29
E23: S 2.12; H 2.19; T 2.24; L 2.18; A 1.7; G 2; K 2.09; W 2.35; V 2.48; F 1.51; Y 1.99; Q 1.94; R 1.91; N 2.42; D 2.28; C 2.12; M 1.55; I 1.92; P 2.44
Y21: E 3.18; I 2.39; P 2.76; C 2.81; K 2.52; N 2.68; L 2.32; T 2.27; R 2.46; S 2.77; W 1.96; D 3.06; M 2.97; G 2.98; A 2.76; F 2.02; Q 2.53; V 2.93; H 2.86
T17: H 2.07; V 2.13; L 2.42; M 1.71; G 2.82; Y 2.23; K 2.56; S 2.48; F 1.85; E 3.02; I 2.1; R 2.44; N 2.35; W 2.15; P 2.4; Q 2.31
R19: F 2.11; S 2.53; E 3.12; W 2.03; T 2.81; Q 2.88; C 2.08; L 2.21; H 2.5; V 2.26; Y 2.52; K 2.46; P 2.53; D 3.08; G 3.07; N 2.87; M 2.35; A 2.29; I 2.09
